Common to all, as to test: EMSA
(A gel shift assay detects complexes by their altered migration in electrophoresis.)

For data set [1], the target named is 11A alanine mutant bZIP (GCN4 basic region - C/EBP zipper) (artificial (yeast GCN4 / C/EBP)) (UniProt P03069). As to conditions: group statement.
The target in data set [2] is 18A alanine mutant bZIP (GCN4 basic region - C/EBP zipper) (artificial (yeast GCN4 / C/EBP)) (UniProt P03069). As to conditions: group statement.
The target of data set [3] is 4A alanine mutant bZIP (GCN4 basic region - C/EBP zipper) (artificial (yeast GCN4 / C/EBP)) (UniProt P03069). The conditions noted are these: group statement.
In data set [4] the test system is wt bZIP (GCN4 basic region - C/EBP leucine zipper hybrid), synthetic (artificial (yeast GCN4 / C/EBP)).
Data set [5] relates to wt bZIP (GCN4 basic region - C/EBP leucine zipper hybrid), expressed (artificial (yeast GCN4 / C/EBP)).
Where [6] appears, read: also DNase I footprinting (p65).
Where [7] appears, read: higher-order bandshifts excluded.

Twelve sequences from US20070009938 can be followed below.

Consider “TGCAGGAACCACGTGGTGAAGGTT (double strand) [Max E-box]”, for which the binding signal (fold weaker than AP-1) in data set [1] (both E-box sites), in data set [2] (both E-box sites) and in data set [3] (both E-box sites) was 10 throughout. In addition, the Kd in data set [4] (saturation not achieved) worked out at 840 nM.

Turning to “TGCAGGAAGCACGTAGTGAAGGTT (double strand) [HRE]”, the binding signal (fold weaker than AP-1) in data set [1] (setting [6]), in data set [2] (setting [6]) and in data set [3] (setting [6]) was 7 throughout. Besides, the Kd in data set [4] (saturation not achieved) came to 1400 nM.

With “TGCAGGAATCACGTGATGAAGGTT (double strand) [Arnt E-box]”, the binding signal (fold weaker than AP-1) in data set [1] (both E-box sites), in data set [2] (both E-box sites) and in data set [3] (both E-box sites) was 10 in each case. In data set [4] (saturation not achieved), the Kd was found to be 570 nM.

“TGCAGGAAGACTAACCTGAAGGTT (double strand) [Partial site / NON2]”: the Kd in data set [4] (apparent monomeric Kd, pH 7.5) was 280 nM.

As to “TGCAGGAATTGCGCAATGAAGGTT (double strand) [C/EBP]”, the binding signal (fold weaker than AP-1) in data set [1] (setting [6]), in data set [2] (setting [6]) and in data set [3] (setting [6]) was 3 each time. Moreover, the Kd in data set [5] (setting [7]) turned out to be 29 nM; in data set [4] (apparent monomeric Kd, pH 7.5), 120 nM.

As to “TGCAGGAATGACTGAAGGTT (double strand) [AP-1 half site]”, the Kd was 23 nM in data set [5] (setting [7]) and 84 nM in data set [4] (apparent monomeric Kd, pH 7.5).

For the sequence “TGCAGGAATGACGTCATGAAGGTT (double strand) [CRE]”, the Kd in data set [4] (apparent monomeric Kd, pH 7.5) was 12 nM.

In data set [4] (saturation not achieved), “TGCAGGAATCACTGAAGGTT (double strand) [Arnt E-box half site]” displayed a Kd above 4000 nM.

In the case of “TGCAGGAATTGCGTGATGAAGGTT (double strand) [XRE1]”, the binding signal (fold weaker than AP-1) in data set [1] (setting [6]), in data set [2] (setting [6]) and in data set [3] (setting [6]) was 7 in each case. Besides, the Kd in data set [4] (apparent monomeric Kd, pH 7.5) was 240 nM.

On to “TGCAGGAATGACTCATTGAAGGTT (double strand) [AP-1]”, for which the Kd was determined as 4.8 nM in data set [5] (higher-order bandshifts excluded, FIG. 6 legend gives 568 nM for wt bZIP with AP-1 in another experiment (TKMC buffer)) and 13 nM in data set [4] (apparent monomeric Kd, pH 7.5).

For the sequence “GATCTGGATGACTCATTTTTTTTT (double strand) [WT AP-1 (his3 flanks)]”, the Kd in data set [4] (apparent monomeric Kd, 2 mM MgCl2, 1 mM CaCl2, pH 7.5, 200 mM guanidine HCl) was 13 nM.

As to “TGCAGGAATTGCTGAAGGTT (double strand) [C/EBP half site]”, the Kd in data set [5] (saturation not achieved) was above 1500 nM; in data set [4] (saturation not achieved), above 5000 nM.
